Measured values from US20090092544A1.

Legend:
[1] = target: ROBO1 expressed on ROBO1-expressing HEK293 cells (ROBO1/pcDNA3.1, C-terminal V5 tag) (human) (UniProt Q9Y6N7); assay: cell-based or functional assay
[2] = target: ROBO1 expressed on ROBO1-expressing HEK293 cells (ROBO1/pcDNA3.1, C-terminal V5 tag) (human) (UniProt Q9Y6N7); assay: FACS on ROBO1-expressing HEK293 cells, signal intensity digitized

Sequence of UniProt Q9Y6N7 (Q9Y6N7 26-1651): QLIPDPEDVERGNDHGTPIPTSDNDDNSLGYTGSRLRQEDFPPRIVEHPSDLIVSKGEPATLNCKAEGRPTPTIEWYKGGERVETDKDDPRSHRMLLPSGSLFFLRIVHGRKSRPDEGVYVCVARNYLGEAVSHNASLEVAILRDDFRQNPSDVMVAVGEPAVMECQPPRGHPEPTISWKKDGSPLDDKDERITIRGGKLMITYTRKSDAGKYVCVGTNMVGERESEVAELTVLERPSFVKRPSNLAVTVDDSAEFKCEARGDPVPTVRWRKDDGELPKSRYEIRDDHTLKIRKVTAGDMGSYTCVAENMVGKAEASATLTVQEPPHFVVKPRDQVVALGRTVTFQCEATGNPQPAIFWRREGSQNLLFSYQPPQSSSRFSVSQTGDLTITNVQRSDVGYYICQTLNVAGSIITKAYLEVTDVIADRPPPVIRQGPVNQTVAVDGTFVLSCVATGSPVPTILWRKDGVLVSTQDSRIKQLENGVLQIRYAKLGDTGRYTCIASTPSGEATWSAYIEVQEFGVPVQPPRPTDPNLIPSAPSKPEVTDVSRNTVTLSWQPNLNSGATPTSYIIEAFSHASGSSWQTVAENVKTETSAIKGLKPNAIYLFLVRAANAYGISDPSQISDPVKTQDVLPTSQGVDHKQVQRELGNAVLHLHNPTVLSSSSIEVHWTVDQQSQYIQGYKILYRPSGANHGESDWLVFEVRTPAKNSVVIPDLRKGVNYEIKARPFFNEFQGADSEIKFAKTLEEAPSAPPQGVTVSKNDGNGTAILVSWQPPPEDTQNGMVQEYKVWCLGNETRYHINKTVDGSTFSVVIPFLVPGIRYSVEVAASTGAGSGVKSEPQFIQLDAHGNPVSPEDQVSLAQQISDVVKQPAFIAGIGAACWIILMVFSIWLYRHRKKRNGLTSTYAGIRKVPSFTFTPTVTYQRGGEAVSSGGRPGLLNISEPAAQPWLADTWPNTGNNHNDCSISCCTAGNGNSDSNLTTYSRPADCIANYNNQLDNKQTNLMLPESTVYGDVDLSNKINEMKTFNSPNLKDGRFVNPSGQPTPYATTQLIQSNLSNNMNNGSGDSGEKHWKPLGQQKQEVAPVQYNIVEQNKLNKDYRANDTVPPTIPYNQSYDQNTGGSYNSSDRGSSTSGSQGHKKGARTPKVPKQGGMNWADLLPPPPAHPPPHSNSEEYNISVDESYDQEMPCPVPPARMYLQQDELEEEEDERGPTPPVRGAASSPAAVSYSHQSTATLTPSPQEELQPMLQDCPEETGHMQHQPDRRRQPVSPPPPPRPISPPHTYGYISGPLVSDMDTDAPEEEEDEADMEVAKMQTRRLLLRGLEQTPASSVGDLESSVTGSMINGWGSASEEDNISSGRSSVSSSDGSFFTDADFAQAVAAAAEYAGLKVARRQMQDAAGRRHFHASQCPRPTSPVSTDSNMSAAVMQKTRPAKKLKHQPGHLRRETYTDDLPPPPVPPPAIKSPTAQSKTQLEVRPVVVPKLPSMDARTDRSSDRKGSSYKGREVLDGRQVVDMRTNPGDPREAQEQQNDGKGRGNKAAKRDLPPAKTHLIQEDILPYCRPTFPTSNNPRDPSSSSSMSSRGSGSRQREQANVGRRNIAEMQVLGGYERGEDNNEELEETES

CDC (%), measured value at 0.1 ug/mL [1]: 87.2%
EC50 [2]: 3.1 nM
B1: B5209B (antibody, from another filing, mouse IgG2b)
scFv: MAEVQLVESGGGVVQPGGSLKLSCAASGFTFSTYDMSWVRQTPDKRLELVATINSNGGSTYYPDSVKGRFTSSRDNAKNILYLQMSSLKSEDTAMYYCAREALLRPPYYALDYWGQGTSVTVSSAGGGGSGGGGSGGGGSGGGGSDILDIQMTQSPASLSASVGETVTITCGASENIYGALTWYQRKQGKSPQLLIYGAINLADDKSSRFSGSGSGRQYSLKISSLHPDDVATYYCQNVLSTPFTFGSGTKLEIKAAGHHHHHH
